The values that follow come from article PMC6735382.

The target of test [1] is Clover-PPARγ1 (human peroxisome proliferator-activated receptor gamma isoform 1, N-terminally labeled with Clover) (human) (UniProt P37231).
Test [2] shares this target. Nature of the test: FRET or BRET; flow cytometry-based FRET (Clover donor, mRuby2 acceptor) in living, stably transduced HEK293T cells; percent FRET-positive among Clover/mRuby2-double positive cells and FRET efficiency from fluorescence medians; N-CoR2 WT cells also treated 24 h with DMSO, 1 µM rosiglitazone, 10 µM GW9662 or both. Background: In BRET a luciferase serves as donor, and the signal depends on an acceptor being close.

UniProt P37231, sequence (P37231 29-505): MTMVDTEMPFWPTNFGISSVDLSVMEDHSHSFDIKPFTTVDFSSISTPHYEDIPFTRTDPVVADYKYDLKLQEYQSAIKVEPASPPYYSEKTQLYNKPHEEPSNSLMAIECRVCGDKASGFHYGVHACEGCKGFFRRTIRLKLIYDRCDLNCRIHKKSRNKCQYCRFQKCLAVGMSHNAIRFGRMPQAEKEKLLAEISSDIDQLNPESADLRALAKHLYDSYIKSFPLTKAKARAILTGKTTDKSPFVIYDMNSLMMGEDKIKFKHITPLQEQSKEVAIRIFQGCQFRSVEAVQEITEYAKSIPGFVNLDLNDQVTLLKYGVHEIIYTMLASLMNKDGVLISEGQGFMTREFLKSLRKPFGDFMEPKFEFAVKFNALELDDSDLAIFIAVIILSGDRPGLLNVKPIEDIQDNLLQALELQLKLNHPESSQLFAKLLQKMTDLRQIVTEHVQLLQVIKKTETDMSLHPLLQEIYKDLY

Substance “N-CoR2 WT-mRuby2 (N-terminally truncated human nuclear receptor co-repressor 2 with ID2 and ID1, C-terminally labeled with mRuby2) (domain or fragment)” displayed a PPARγ-dependent transactivation (PPRE reporter p(AOX)3-TK-Luc) in HEK293T cells, 1 µM rosiglitazone 24 h against DMSO in test [1] of 3.5 fold. Besides, the percent FRET-positive cells in test [2] was 70%.
